Measured values reported in patent US20220363716A1.

Assays:
[1] = target: human serum-derived IgG (SIGMA, #14506, Lot #SLBR0560V) (human); test: frontal loading of 0.67 mg/ml IgG on a 1-ml Z33 column (912 nmol), 20 mM phosphate pH 7.0
[2] = target: human serum-derived IgG (SIGMA, #14506, Lot #SLBR0560V) (human); test: elution at pH 3.5 from the 1-ml Z33 column, A280

- dynamic binding capacity (DBC) [1]: 26 mg
- amount of the antibody bound to the column [2]: 19 mg
Substance: IgG-bound peptide Z33 Acetyl-…-NH2, immobilized on a HiTrap NHS-activated HP column
